The record followed here is article PMC7971329 (Oncoimmunology, 2021).

The assay concerns the target human interleukin-2 (human, UniProt P60568). Put plainly: SEC. (In general: SEC sorts molecules by how far they enter the pores of the column.)

human interleukin-2, sequence (P60568 21-153): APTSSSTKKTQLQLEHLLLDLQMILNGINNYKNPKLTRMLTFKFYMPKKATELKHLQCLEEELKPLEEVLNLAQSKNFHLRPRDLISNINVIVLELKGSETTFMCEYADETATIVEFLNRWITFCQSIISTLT

B1: TCB2-Fab (Fab, V domains shown)
VH: EVQLQQSGAELARPGASVKLSCKASGYTFTTYWIQWVKQRPGQGLEWIGAIYPGDGDTRYIQNFKGKATLTADKSSSTAYMQLSSLASEDSAVYYCARSLATRGFYAMDYWGQGTSVTVSS
VL: DIVMTQSPASLSMAIGEKVTIRCITSTDIDDDMNWYQQKPGEPPKLLISEGNTLRPGVPSRFSSSGYGTDFVFTIENMLSEDVADYYCLQSDNLPYTFGGGTKLEIK
As for B1, the binding result is recorded as “binds”.
